Source: patent US20250389714A1, “PHARMACEUTICAL COMPOSITION FOR TREATING DISEASES RELATED TO TAUOPATHY” (SEOUL NATIONAL UNIVERSITY R&DB FOUNDATION, priority 2021, published 2025)
Entries after “also recorded” stand apart in the source; their conditions may differ.

What was measured:
[1] = biological target: T1, RAGE (Homo sapiens, UniProt Q15109); experiment: Cell binding assay and calculation of dissociation constant (Kd) for RAGE binding; conditions: monomer equivalents of total Aβ42 or total tau; biotin-labeled oligomers, RAGE-overexpressing SH-SY5Y cells, 2 hours
T1 construct: RFP-tagged RAGE full-length (FL) or cytoplasmic domain deletion mutants (ΔCyto); expressed in transfected cells; host or cells: SH-SY5Y human neuroblastoma cells
Experimental: FIG. 2c is a graph showing the results of analyzing RAGE binding affinities of tau oligomers (oTau) and Aβ42 oligomers (oAβ42). RAGE-overexpressing SH-SY5Y cells were treated with biotin-tau or Aβ42 oligomers for 2 hours, and the cell-bound biotin signal intensities in FIG. 12a were measured. The data were presented as mean±SEM (n=3-5), and the Kd of binding values were obtained from nonlinear regression analysis of saturated binding.
The purified tau monomers of the present invention were biotinylated using the Ez-Link Sulfo-NHS-LC-Biotinylation kit (Thermo Scientific) and then fibrillated as described above to form oligomers and fibrils. SH-SY5Y cells were transfected with RAGE cDNA for 24 hours and incubated with biotin-tau protein for 2 hours. Primary cortical neurons from WT and Rage KO mice (DIV 7) were then incubated with various concentrations of biotin-tau oligomers for 24 hours to estimate the Kd value for tau binding to RAGE. Cells were washed with Tris-buffered saline (TBS) and fixed with 4% paraformaldehyde for 20 min. The cells were then blocked with 10% FBS and 0.1% Triton X-100 in TBS for 1 hour and incubated with streptavidin-alkaline phosphatase conjugate (1:2000, Roche) at 4° C. for 16 hours. After washing with TBS, bound biotin-tau was visualized for 10 min using the […] liquid substrate system (Sigma-Aldrich). Images were acquired using INCell Analyzer 2000, and cell-bound biotin signals were measured using Image J. Kd values estimated for RAGE-binding were obtained from nonlinear regression analysis of saturated binding using Prism (GraphPad Software).

[2] = test system: RAGE-overexpressing SH-SY5Y cells; experiment: Competition of tau oligomers and Aβ42 oligomers for uptake in RAGE-overexpressing SH-SY5Y cells; format: cell-based, human; conditions: increasing concentrations of DyLight 594-tau oligomers with 125 nM FITC-Aβ42 oligomers, 2 hours
Experimental: FIG. 12b is a graph showing the results of analyzing […] and FITC intensities in RAGE-overexpressing SH-SY5Y cells. The cells were treated with increasing concentrations of DyLight 594-tau oligomers (red) in the presence of 125 nM FITC-Aβ42 oligomers (green) for 2 hours. Fluorescence images were acquired, and intracellular DyLight 594 and FITC intensities were measured. The data were presented as mean±SEM (n=3).

[3] = biological target: human RAGE (receptor for advanced glycation end products), full-length, overexpressed in SH-SY5Y cells (human) (UniProt Q15109); experiment: cell-based or functional assay
[4] = test system: primary cortical neurons or hippocampal neurons; experiment: Tau infection assay in primary cultured neurons; conditions: 500 nM DyLight 488-tau oligomers, 24 hours
[5] = test system: RAGE-expressing SH-SY5Y cells; experiment: Tau infection (intracellular DyLight 488-tau oligomers) in RAGE-expressing SH-SY5Y cells; format: cell-based, human; conditions: increasing concentrations of antagonist, 4 hours, 500 nM DyLight 488-tau oligomers
Experimental: (right) for 4 hours in the presence of 500 nM DyLight 488-tau or 125 nM FITC-Aβ42 oligomers. Fluorescence images were acquired, and intracellular DyLight 488 and FITC intensities were measured. The data were presented as mean±SEM (n=4).

[6] = test system: rTg4510 mice; experiment: Behavioral tests (Y-maze, novel object recognition, passive avoidance) in rTg4510 mice; format: in vivo, mouse; conditions: 1 mg/kg/day intraperitoneally, daily for 2.5 months from 2 months of age; tests at 4.5 months
[7] = biological target: T2, low molecular weight (LMW, 2-4 units) tau oligomers of 6xHis tagged human 0N4R tau (human, UniProt P10636-6 1-383, biotinylated or labelled with DyLight 488, depending on the assay; sites not stated); experiment: cell binding assay: biotin-labelled LMW tau oligomers for 24 h on primary cortical neurons, streptavidin-alkaline phosphatase, BCIP/NBT; nonlinear regression of saturation binding; dashed ΔRage curve, whose points equal WT minus Rage KO; concentration as tau monomer equivalent
T2 construct: also called LMW tau oligomers; not shown: 6xHis tag from the pET-His vector

[8] = biological target: T3, high molecular weight (HMW, 10-20 units) tau oligomers of 6xHis tagged human 0N4R tau (human, UniProt P10636-6 1-383, biotinylated or labelled with DyLight 488, depending on the assay; sites not stated); experiment: cell binding assay: biotin-labelled HMW tau oligomers for 24 h on primary cortical neurons, streptavidin-alkaline phosphatase, BCIP/NBT; nonlinear regression of saturation binding; dashed ΔRage curve, whose points equal WT minus Rage KO; concentration as tau monomer equivalent
T3 construct: also called HMW tau oligomers; not shown: 6xHis tag from the pET-His vector
T3 sequence (P10636 other isoform, or with tags, fused parts or gaps): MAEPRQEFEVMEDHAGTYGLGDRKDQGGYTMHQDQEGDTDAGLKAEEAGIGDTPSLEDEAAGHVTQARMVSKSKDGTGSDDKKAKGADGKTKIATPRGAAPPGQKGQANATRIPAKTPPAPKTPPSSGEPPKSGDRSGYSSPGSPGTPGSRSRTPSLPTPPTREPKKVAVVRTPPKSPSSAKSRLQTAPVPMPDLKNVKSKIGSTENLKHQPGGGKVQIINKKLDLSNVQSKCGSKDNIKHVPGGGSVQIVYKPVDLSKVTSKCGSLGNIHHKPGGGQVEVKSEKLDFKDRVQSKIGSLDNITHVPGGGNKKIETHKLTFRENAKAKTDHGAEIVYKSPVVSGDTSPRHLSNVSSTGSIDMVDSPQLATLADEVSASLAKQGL

T1 sequence (Q15109 23-404): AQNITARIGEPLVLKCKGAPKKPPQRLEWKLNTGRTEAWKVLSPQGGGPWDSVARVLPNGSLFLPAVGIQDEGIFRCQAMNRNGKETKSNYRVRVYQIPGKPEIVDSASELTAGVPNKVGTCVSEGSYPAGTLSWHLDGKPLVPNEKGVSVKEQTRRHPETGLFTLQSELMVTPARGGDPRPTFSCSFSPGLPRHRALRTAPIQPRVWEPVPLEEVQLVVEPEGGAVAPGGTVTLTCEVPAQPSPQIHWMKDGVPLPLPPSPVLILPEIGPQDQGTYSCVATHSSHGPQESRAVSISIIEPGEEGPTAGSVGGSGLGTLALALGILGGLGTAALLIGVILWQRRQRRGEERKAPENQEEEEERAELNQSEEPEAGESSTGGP
T2 sequence (P10636 other isoform, or with tags, fused parts or gaps): as the sequence (P10636 other isoform, or with tags, fused parts or gaps) above
Sequence of human RAGE (receptor for advanced glycation end products), full-length, overexpressed in SH-SY5Y cells (human) (Q15109 23-404): as the sequence (Q15109 23-404) above

“HMW tau oligomers: high molecular weight tau oligomers (10-20 units) of recombinant human 0N4R tau” was tested, and the Kd [1] was 51 nM.

With “tau oligomers: oligomers of recombinant 6×His tagged human 0N4R tau formed with heparin” the “intracellular transfection of Aβ42 oligomers” value [2] was “efficiently reduced the intracellular transfection of Aβ42 oligomers”.

Work on “DyLight 488-tau aggregates (His-tagged human tau aggregated with heparin, used in the cDNA screen) (from UniProt P10636 1-383) (ligand)” yielded an Intracellular DyLight 488 Intensities (AU) [3] of 9.55 AU.

“Aβ42 oligomers: oligomers prepared from synthetic biotin- or FITC-labeled Aβ42 peptide (rPeptide)” was tested, and the Kd [1] was 17 nM.

In the case of “LMW tau oligomers: low molecular weight tau oligomers (2-4 units) of recombinant human 0N4R tau”, the Kd [1] is reported as 205 nM.

`O=C(c1ccc(Cl)cc1)N(Cc1ccccc1)C1CCCCC1` [FPS-ZM1] was tested, and the “tau infection into neurons” value ([4]; WT cortical neurons, 1 μM antagonist) was “inhibited tau infection; also recorded: reduces neuronal tau infection”, the “tau infection into RAGE-expressing SH-SY5Y cells” value [5] was “inhibited tau infection” and the “cognitive function (spatial and working memory) of rTg4510 mice” value [6] was “significantly alleviated cognitive impairment; also recorded: significant retention of spatial and working memory; also recorded: ameliorated the behavioral impairment”.

With heparin the “tau oligomer transfection into Rage KO neurons” value ([4]; Rage KO neurons, 15 U/ml heparin) was “efficiently blocked” and the “neuronal uptake of tau oligomers into WT neurons” value ([4]; WT neurons, 15 U/ml heparin) was “reduced neuronal uptake of tau oligomers”.

B1: mouse RAGE, endogenous, on primary cultured WT mouse neurons (against Rage KO neurons) (receptor, UniProt Q62151 23-402, looked up)
chain: GQNITARIGEPLVLSCKGAPKKPPQQLEWKLNTGRTEAWKVLSPQGGPWDSVARILPNGSLLLPATGIVDEGTFRCRATNRRGKEVKSNYRVRVYQIPGKPEIVDPASELTASVPNKVGTCVSEGSYPAGTLSWHLDGKLLIPDGKETLVKEETRRHPETGLFTLRSELTVIPTQGGTHPTFSCSFSLGLPRRRPLNTAPIQLRVREPGPPEGIQLLVEPEGGIVAPGGTVTLTCAISAQPPPQVHWIKDGAPLPLAPSPVLLLPEVGHEDEGTYSCVATHPSHGPQESPPVSIRVTETGDEGPAEGSVGESGLGTLALALGILGGLGVVALLVGAILWRKRQPRREERKAPESQEDEEERAELNQSEEAEMPENGAGGP
notes: whole, on cells
With B1 the Kd [7] was 43.5 nM and the Kd [8] was 25 nM.
